Measured values: patent US20220280618A1 (ADMINISTRATORS OF THE TULANE EDUCATIONAL FUND, published 2022)

T1: MET6-Biotin peptide (Candida albicans, not fully specified; C-terminal K-Biotin (PRIGGQRELKKITEPGGSGGSGK-Biotin))
T1 construct: also called btn-Met6 peptide; MFT6-Biotin
T1 peptide: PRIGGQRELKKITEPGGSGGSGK

T2: full-length His-tagged recombinant Fba protein from C. albicans (Candida albicans, UniProt Q9URB4 2-359)
T2 construct: mature; also called His-Fba; whole length recombinant Fba (C. albicans); not shown: six-histidine (6-His) amino terminal tag from vector pRSET A
T2 sequence (looked up): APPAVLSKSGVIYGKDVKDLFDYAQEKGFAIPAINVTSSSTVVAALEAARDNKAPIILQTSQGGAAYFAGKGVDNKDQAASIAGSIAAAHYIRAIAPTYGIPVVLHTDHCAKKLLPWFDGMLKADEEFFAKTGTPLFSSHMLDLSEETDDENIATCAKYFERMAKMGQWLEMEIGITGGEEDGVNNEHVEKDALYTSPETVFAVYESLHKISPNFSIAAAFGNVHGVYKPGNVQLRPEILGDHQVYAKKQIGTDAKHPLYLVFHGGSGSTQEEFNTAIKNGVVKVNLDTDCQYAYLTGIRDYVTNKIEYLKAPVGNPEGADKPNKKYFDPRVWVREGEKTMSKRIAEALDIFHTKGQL

T3: full-length His-tagged recombinant Met6 protein from C. albicans (Candida albicans, UniProt P82610 2-767)
T3 construct: mature; also called His-Met6; whole length recombinant MET6; not shown: six-histidine (6-His) amino terminal tag from vector pRSET A
T3 sequence (looked up): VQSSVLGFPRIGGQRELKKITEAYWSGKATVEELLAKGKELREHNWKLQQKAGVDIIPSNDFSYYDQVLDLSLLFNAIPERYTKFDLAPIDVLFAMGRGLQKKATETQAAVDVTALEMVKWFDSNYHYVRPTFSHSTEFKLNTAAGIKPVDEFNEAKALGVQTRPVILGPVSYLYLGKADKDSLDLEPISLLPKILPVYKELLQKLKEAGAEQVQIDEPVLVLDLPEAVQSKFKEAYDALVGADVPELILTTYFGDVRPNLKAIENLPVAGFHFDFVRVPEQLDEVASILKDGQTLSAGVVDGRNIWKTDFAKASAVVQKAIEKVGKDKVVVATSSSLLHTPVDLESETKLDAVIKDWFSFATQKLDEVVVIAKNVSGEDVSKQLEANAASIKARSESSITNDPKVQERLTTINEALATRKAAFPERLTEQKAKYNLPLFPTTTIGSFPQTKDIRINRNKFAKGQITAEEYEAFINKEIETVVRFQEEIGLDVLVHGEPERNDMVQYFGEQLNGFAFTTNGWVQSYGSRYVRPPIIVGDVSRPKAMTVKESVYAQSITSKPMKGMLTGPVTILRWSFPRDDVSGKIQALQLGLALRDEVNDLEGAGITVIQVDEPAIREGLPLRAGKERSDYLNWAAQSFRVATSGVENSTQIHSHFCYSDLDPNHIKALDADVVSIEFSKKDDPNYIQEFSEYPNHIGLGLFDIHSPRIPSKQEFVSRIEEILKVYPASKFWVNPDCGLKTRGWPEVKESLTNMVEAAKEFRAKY

T4: Fba-Biotin peptide (Candida albicans, not fully specified; C-terminal K-Biotin (YGKDVKDLFDYAQEGGSGGSGK-Biotin))
T4 construct: also called btn-Fba peptide
T4 peptide: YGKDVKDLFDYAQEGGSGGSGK

B1: HuMAb 1.10C (anti-MET6) (antibody, V domains shown)
VH: EVQLVESGGGLVKPGGSLRLSCKASGFNFTNSWMSWVRQAPGKGLEWLGRIKSESDGGATRYAAPVTGRFSISRDDSRDMLFLQMNSLTTDDTAMYYCTTNKVTTNYWGQGTLVTVSS
VL: DIVMTQSPVTLAVSLGERATINCKSSQSLLYSSDNENYLTWYQQKPGQPPKLLIYWASVRESGIPDRFIGSGSVTDFTLTINNVQAEDVAVYYCQQFRYTPLTFGQGTTLEIK
notes: also called 1.100
B2: HuMAb 1.11D (anti-Fba) (antibody, V domains shown)
VH: EVQLVQSGGGLVQPGGSLRLSCSASGFTFRTYAMSWVRQAPGKGLQWVSVISRSGDTTYHTDSVKGRFTISRDNSRNALYLQLDSLRAEDTALYYCAKTGNMAVGDRRTNYSYYYMDVWGKGTTVTVSS
VL: DIVMTQSPSTLSASVGDRVTITCRASQSIKYWLAWYQQKPGKAPKLLIYKASNLESGVPSRFSGSGSGTEFTLTISSLRPDDFATYYCQQYNSYPLTFGGGTVEIK
B3: HuMAb 6.11C (anti-Fba) (antibody, V domains shown)
VH: QVQLVQSGAEVKKPGASVQVSCRTSGYTFINYFMHWVRQAPGQGLEWMGIINPNGGKTRYAQKFQGRLTVTRDTSTNTVYVELSNLRYEDTGLYFCARDPEGEVGFDYWGQGTQVTVSS
VL: SHELTQPPSVSVSPGQTARITCSGDALSKQYAYWYQQKPGQAPVVVIYKDNERPSGIPERFSGSSSGTTVTLTITGVQAEDEADYYCQSTDTSRAYYVFGTGTKVTVL
B4: MET6 peptide (synthetic, from methyltetrahydropteroyltriglutamate homocysteine methyltransferase) (peptide)
peptide: PRIGGQRELKKITE
notes: also called MEM
B5: HuMAb 1.B10 (anti-Met6) (antibody, V domains shown)
VH: EVQLVQSGGGLVKPGGSLRLSCAASGFIFSNAWMNWVRQAPGKGLEWVGRIKRESDSGTTDYGAAVKGRFTISRDDSKYTLYLQMNSLKTDDTAVYYCTTGWADYWGQGTLVTVSS
VL: LIQPPSVSVSPGQTARITCSGDALPNKYAYWYQQKPGQAPSVVMFRDNERPSGIPERFSGSSSGTTVTLTISGVQAEDESDFYCQSTDSNGAWVFGGGTKLTVL
B6: HuMAb 6.6K (anti-Met6) (antibody, V domains shown)
VH: QVQLVESGGGVVQPGRSLRLSCAASGFNFISYGMHWVRQAPGKGLEWVALISYDGSNKYYADSVKGRFTISRDNSKNTLYLQMNSLRAEDTAVYYCATEAYVETAMVPQYWGQGTLVTVSS
VL: SYELTQPPSVSVSPGQTARITCSGDALPKEYAYWYQQKSGQAPVVVIYEDSKRPSGIPERFSGSSSGTMATLTISGAQVEDEADYHCYSTDSSGNPVFGGGTKLTVL
B7: Fba peptide (synthetic, from fructose-bisphosphate aldolase) (peptide)
peptide: YGKDVKDLFDYAQE

Legend:
[1] = target: B4; assay: ELISA on peptide-coated wells, HRP goat anti-human IgG, absorbance at 450 nm
[2] = target: B7; assay: as above
[3] = target: T1, MET6-Biotin peptide; assay: bio-layer interferometry (Octet), met6-btn loaded on streptavidin sensors, kinetic 1:1 fit; column head kdis(1/s)
[4] = target: T1, MET6-Biotin peptide; assay: bio-layer interferometry (Octet), met6-btn loaded on streptavidin sensors, kinetic 1:1 fit
[5] = target: T2, full-length His-tagged recombinant Fba …; assay: bio-layer interferometry (BLITz), His-Fba (C. albicans) loaded on an anti-penta-His sensor, antibody in the association step
[6] = target: T1, MET6-Biotin peptide; assay: bio-layer interferometry (Octet), steady state analysis, met6-btn on streptavidin sensors
[7] = target: T3, full-length His-tagged recombinant Met6 …; assay: bio-layer interferometry (BLITz), His-Met6 (C. albicans) from bacterial supernatant loaded on an anti-penta-His sensor, antibody in the association step
Method: Before beginning, an Anti-Penta-His sensor (HisK sensor; FortèBio) was hydrated in Kinetics Buffer [PBS+0.1% BSA+0.02% Tween20]. […] A secondary baseline step was performed using Kinetics Buffer. Then an association step was performed with the loaded tip dipped into a solution containing purified. […] Finally, the tip was transitioned back to Kinetics Buffer for a dissociation step.

[8] = target: T1, MET6-Biotin peptide; assay: BLI (BLITz), btn-Met6 peptide on streptavidin tip, IgG in solution
Method: (§1) Binding experiments were performed using a FortèBio BLITz Bi-layer interferometer at 25° C. […] Loaded sensors were dipped into serial dilutions of the cognate IgG.

[9] = target: T1, MET6-Biotin peptide; assay: BLI (Octet HTX), steady-state analysis, biotinylated peptide on streptavidin sensor, IgG in solution; steady-state measurement (FIG. 5)
[10] = target: T1, MET6-Biotin peptide; assay: BLI (BLITz), btn-Met6 peptide on streptavidin tip, IgG in solution; BLITz run of Dec. 3, 2018
[11] = target: T1, MET6-Biotin peptide; assay: BLI (Octet HTX), kinetic 1:1 fit, biotinylated peptide on streptavidin sensor, IgG in solution; kinetic measurement (FIG. 4)
[12] = target: T4, Fba-Biotin peptide; assay: BLI (BLITz), btn-Fba peptide on streptavidin tip, IgG in solution
Method: as §1

[13] = target: T4, Fba-Biotin peptide; assay: BLI (Octet HTX), steady-state analysis, biotinylated peptide on streptavidin sensor, IgG in solution; steady-state measurement (FIG. 5)
[14] = target: T4, Fba-Biotin peptide; assay: bio-layer interferometry (Octet), Fba-btn at 10 ng/ml loaded on streptavidin sensors, kinetic 1:1 fit
[15] = target: T4, Fba-Biotin peptide; assay: bio-layer interferometry (Octet), Fba-btn at 10 ng/ml loaded on streptavidin sensors, kinetic 1:1 fit; column head kdis(1/s)
[16] = target: T4, Fba-Biotin peptide; assay: bio-layer interferometry (Octet), steady state analysis, Fba-btn on streptavidin sensors
[17] = target: T4, Fba-Biotin peptide; assay: BLI (Octet HTX), kinetic 1:1 fit, biotinylated peptide on streptavidin sensor, IgG in solution; kinetic measurement (FIG. 4)
[18] = target: B1; assay: competition ELISA: 1.10C mixed with free MET6 peptide and added to MET6 peptide-coated wells; the competitor is the coated MET6 peptide
[19] = target: B2; assay: competition ELISA: 1.11D mixed with free Fba peptide and added to Fba peptide-coated wells; the competitor is the coated Fba peptide

B1
binding result [1]: binds
binding result [2]: no binding
koff [3]: 0.0124 s⁻¹
Kd [4]: 179 nM
kon [4]: 69500 M⁻¹ s⁻¹
binding result [5]: no binding
Kd [6]: 310 nM
binding result [7]: binds
koff [8]: 0.0055 s⁻¹
kon [8]: 31000 M⁻¹ s⁻¹
Kd [9]: ~310 nM
Kd [10]: 180 nM
Kd [11]: ~180 nM

B2
Kd [12]: 19.8 nM
koff [12]: 0.00073 s⁻¹
kon [12]: 38000 M⁻¹ s⁻¹
Kd [13]: ~77 nM
Kd [14]: 58.5 nM
kon [14]: 111000 M⁻¹ s⁻¹
koff [15]: 0.00646 s⁻¹
Kd [16]: 77 nM
Kd [17]: ~58 nM

B3
Kd [12]: 120 nM
koff [12]: 0.06 s⁻¹
kon [12]: 490000 M⁻¹ s⁻¹

B4
IC50 (read off the curve) [18]: ~2 µg/mL

B5
Kd [8]: 31 nM
koff [8]: 0.0064 s⁻¹
kon [8]: 210000 M⁻¹ s⁻¹

B6
Kd [8]: 160 nM
koff [8]: 0.012 s⁻¹
kon [8]: 75000 M⁻¹ s⁻¹

B7
IC50 (read off the curve) [19]: ~4 µg/mL
